Like-named read-outs stand apart in the source and are kept apart here.
Tests used:
[1] = tested on: influenza A/Puerto Rico/8/34 (A/PR/8/34, H1N1); assay type: in vivo, C57BL/6J mice
[2] = tested on: influenza A/Puerto Rico/8/34 (A/PR/8/34, H1N1); assay type: in vivo, C57BL/6J mice; remark: listed apart in the source
[3] = tested on: PR8 influenza virus followed by S. pneumoniae; assay type: in vivo, C57BL/6J mice
[4] = tested on: S. pneumoniae; assay type: in vivo, C57BL/6J mice
[5] = tested on: collagenolytic activity in lung section; set-up: species or system C57BL/6J mice; conditions: mouse, in vivo
[6] = tested on: influenza A/Puerto Rico/8/34 (A/PR/8/34, H1N1); assay type: in vivo, C57BL/6J mice; remark: listed apart in the source
[7] = target: MT1-MMP (Homo sapiens, UniProt P50281); conditions: cited from earlier work
[8] = sub-lethal PR8 influenza, 74 hours post infection
[9] = influenza-infected mice, versus control treated

For `CCOC(=O)C1=C[C@@H](OC(CC)CC)[C@H](NC(C)=O)[C@@H](N)C1` [Tamiflu, Oseltamivir phosphate, reference compound], the “tissue integrity, ECM morphology and collagen structure (AirSEM)” value ([1]; mouse, in vivo) was “same destructive lung tissue and ECM phenotypes were observed”, the “reduction of viral burden in whole-lung homogenates (qPCR)” value ([2]; versus vehicle-treated mice) was 10-100 fold and the “alveolar and bronchial structures / collateral damage in lung ECM (AirSEM)” value ([3]; mouse, in vivo) was “ineffective in preventing collateral damage in the lung ECM”. The “survival rates and clinical scores, preventive treatment (comparison in words)” value ([3]; mouse, in vivo) was “same survival rates and clinical scores as the group that received anti-MT1-MMP”, the “survival, therapeutic treatment” value ([3]; mouse, in vivo) was 20% and the “bacteremia and dissemination of S. pneumoniae from lungs to systemic circulation and spleen” value (“bacteremia and dissemination” for short) ([4]; mouse, in vivo) was “developed sepsis”.

B1: LEM 2/15: selective allosteric inhibitory antibody of MT1-MMP from LEM-2/15 hybridoma cells; Fab fragment given to mice at 3 mg/kg (antibody, V domains shown)
VL: LVIDVLMTQTPLSLPVGLGDQASISCRSSQSIVHSNGNTYLEWYLQKPGQSPKLLIYKVSNRFSGVPDRFSGSGSGTDFTLKISRVEAEDLGVYYCFQGSHAPYTFGGGTKLEIKR
VH: EVKLVESGGGLVKPGGSLKLSCAASGFIFSNYAMSWVRQTPEKRLEWVATISGGGRNIYSLDSVKGRFTFFRDNARNTLYLQMSSLRSEDTAMYFCSRENYGSSFTYWGQGTLVTVS
modifications: Fab fragment; LEM-2/15.8 antibody VH amino acid sequence; LEM-2/15.8 antibody VL amino acid sequence
With B1 the “collagen type I fibers (two-photon second harmonic generation, 3D analysis)” value [1, 8] was “more abundant”, the “laminin degradation in infected lungs (immunostaining)” value [1, 8] was “protected laminin” and the “tissue integrity, ECM morphology and collagen structure (AirSEM)” value [1, 8] was “protected tissue integrity”. For the same molecule, the “proteolysis by functional in situ zymography” value [5] was “significant attenuation of proteolysis”, the “recruitment of macrophages and neutrophils to infected lungs (FACS)” value ([6]; 74 hours post-infection, versus control antibody) was “no detectable differences” and the “IL-1β level in BALF” value [6, 9] was “strongly induced in influenza-infected mice regardless of MT1-MMP activity”. The “TNF-α level in BALF” value [6, 9] was “strongly induced in influenza-infected mice regardless of MT1-MMP activity”, the “effect on viral burden, early phases of infection” value ([2]; 24 hours post infection) was “minimal effect” and the “effect on viral burden, later stages” value ([2]; later stages of infection) was “no effect was discernible”. For the same molecule, the “survival rates and clinical scores, preventive treatment (comparison in words)” value ([3]; co-infection, treatment one day before infection (-1)) was “equally effective in preventing co-infection induced mortality”, the “survival, therapeutic treatment” value ([3]; co-infection, treatment one day post infection (+1)) was 70% and the “bacteremia and dissemination” value ([4]; co-infected mice, 2 days post bacterial infection, listed as MT1-MMP inhibitory antibody) was “reduced spread of bacteria”. The “bacteremia and dissemination” value ([4]; co-infected mice, 2 days post bacterial infection, listed as anti-MT1-MMP inhibitor) was “did not develop systemic bacterial dissemination”, the “concentration at which the inhibitory antibody of MT1-MMP is effective” value ([7]; inhibits collagenase activity of MT1-MMP expressed on the cell surface) was “nano-molar concentrations” and the “interference with proMMP-2 activation and enzyme dimerization on the cell surface” value ([7]; selectivity of inhibition) was “without significantly interfering”.
